{"source": "patent US8383117", "binders": {"B1": {"name": "VB1-008 monoclonal antibody (antibody, V domains shown)", "VH": "QVQLQELGPRLVRPSQTLILTCTVSGGSVSGDEYYWSWLRQTPGKGLEWIGYMSYRGSSYYSPSLQSRVTIAVDRSKNEFSLKLTSVTAADAAVYFCARKYCGGDCRSGFDIWGRGTMVTVAS", "VL": "YELTQPPSVSVSPGQKAFITCSGDNLGNKYVCWYQQKPGQSPVLVIYEDTKRPSGIPERFSASNSGNTATLTISGTQPIDEADYYCQAWDSRTEIFGTGTKVTVLS", "notes": "also called 17P2/C12"}}, "key": {"[1]": {"biological_target": "T1, CD44E (CD44 isoform 3, epithelial form) (human, UniProt P16070 21-742)", "T1 construct": "also called CD44v8-10; VB1-008 Ag", "T1 sequence (P16070 other isoform, or with tags, fused parts or gaps limits assumed)": "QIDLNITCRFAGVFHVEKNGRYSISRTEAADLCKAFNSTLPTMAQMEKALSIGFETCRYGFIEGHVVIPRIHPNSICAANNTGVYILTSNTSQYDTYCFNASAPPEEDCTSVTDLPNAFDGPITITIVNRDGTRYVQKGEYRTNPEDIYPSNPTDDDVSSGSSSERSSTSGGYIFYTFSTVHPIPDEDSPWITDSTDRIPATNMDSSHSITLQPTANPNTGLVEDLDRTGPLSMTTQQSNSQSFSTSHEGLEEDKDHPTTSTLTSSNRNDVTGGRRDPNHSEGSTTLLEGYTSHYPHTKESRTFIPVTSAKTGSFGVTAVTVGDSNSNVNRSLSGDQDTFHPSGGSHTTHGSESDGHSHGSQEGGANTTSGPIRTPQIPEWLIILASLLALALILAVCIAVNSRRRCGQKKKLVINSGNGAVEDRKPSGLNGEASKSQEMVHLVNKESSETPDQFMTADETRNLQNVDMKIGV", "experiment": "flow cytometry, MB435S cells", "excerpt": "(§1) Appropriate isotype-matched controls were also used in the study."}, "[2]": {"biological_target": "T1, CD44E (CD44 isoform 3, epithelial form)", "experiment": "flow cytometry, A-375 cells, surface-bound antibody after 60 min at 37 °C"}, "[3]": {"biological_target": "T1, CD44E (CD44 isoform 3, epithelial form)", "experiment": "flow cytometry, DAUDI cells (called antigen-negative); control 4B5-IgG"}, "[4]": {"biological_target": "T1, CD44E (CD44 isoform 3, epithelial form)", "experiment": "flow cytometry, RAMOS cells (called a negative line)"}, "[5]": {"biological_target": "T1, CD44E (CD44 isoform 3, epithelial form)", "experiment": "flow cytometry, RAMOS cells"}, "[6]": {"biological_target": "T1, CD44E (CD44 isoform 3, epithelial form)", "experiment": "flow cytometry, MDA-MB-435S cells (very positive line)"}, "[7]": {"biological_target": "T1, CD44E (CD44 isoform 3, epithelial form)", "experiment": "flow cytometry, DAUDI cells (called antigen-negative)"}, "[8]": {"biological_target": "T1, CD44E (CD44 isoform 3, epithelial form)", "experiment": "flow cytometry, RAMOS cells; control 4B5-IgG", "excerpt": "as §1"}, "[9]": {"biological_target": "T1, CD44E (CD44 isoform 3, epithelial form)", "experiment": "flow cytometry, MB231 cells", "excerpt": "as §1"}, "[10]": {"biological_target": "T1, CD44E (CD44 isoform 3, epithelial form)", "experiment": "flow cytometry, A-375 cells (very positive line)"}, "[11]": {"biological_target": "T1, CD44E (CD44 isoform 3, epithelial form)", "experiment": "flow cytometry, MCF-7 cells", "excerpt": "as §1"}, "[12]": {"biological_target": "T1, CD44E (CD44 isoform 3, epithelial form)", "experiment": "flow cytometry, A-375 cells kept on ice for 120 min; over human IgG (4B5)"}, "[13]": {"biological_target": "T1, CD44E (CD44 isoform 3, epithelial form)", "experiment": "flow cytometry, PANC-1 cells (no antigen purified from this line)"}, "[14]": {"biological_target": "T1, CD44E (CD44 isoform 3, epithelial form)", "experiment": "flow cytometry, A-375 cells"}, "[15]": {"biological_target": "T1, CD44E (CD44 isoform 3, epithelial form)", "experiment": "flow cytometry, A-375 cells; control 4B5-IgG", "excerpt": "as §1"}, "[16]": {"biological_target": "T1, CD44E (CD44 isoform 3, epithelial form)", "experiment": "flow cytometry, MCF-7 cells (weakly positive line)"}, "[17]": {"biological_target": "T1, CD44E (CD44 isoform 3, epithelial form)", "experiment": "flow cytometry, MDA-MB-231 cells (moderately positive line)"}, "[18]": {"biological_target": "T1, CD44E (CD44 isoform 3, epithelial form)", "experiment": "flow cytometry, MCF-7 cells; control 4B5-IgG", "excerpt": "as §1"}, "[19]": {"biological_target": "T1, CD44E (CD44 isoform 3, epithelial form)", "experiment": "flow cytometry, PANC-1 cells (called a negative line in the immunoprecipitation)"}, "[20]": {"biological_target": "T1, CD44E (CD44 isoform 3, epithelial form)", "experiment": "flow cytometry saturation curve on A-375 tumor cells, Lineweaver-Burk; antigen on the cells identified later in the filing as CD44E", "description": "Values and graphical analysis were generated using Sigma Plot (Jandel Scientific, San Rafael, Calif.). The inverse of the determined median fluorescence was plotted as a function of the inverse of antibody concentration to determine KD by the Lineweaver-Burk method. A straight line was generated and the KD was calculated from the slope of the curve."}, "[21]": {"biological_target": "T1, CD44E (CD44 isoform 3, epithelial form)", "experiment": "flow cytometry, DAUDI cells (called antigen-negative)", "remark": "listed apart in the source"}, "[22]": {"biological_target": "T1, CD44E (CD44 isoform 3, epithelial form)", "experiment": "flow cytometry, PANC-1 cells; control 4B5-IgG", "excerpt": "as §1"}, "[23]": {"biological_target": "T1, CD44E (CD44 isoform 3, epithelial form)", "experiment": "flow cytometry, A-375 cells, surface-bound antibody after 120 min at 37 °C"}, "[24]": {"biological_target": "T1, CD44E (CD44 isoform 3, epithelial form)", "experiment": "flow cytometry, MB231 cells; control 4B5-IgG", "excerpt": "as §1"}, "[25]": {"biological_target": "T1, CD44E (CD44 isoform 3, epithelial form)", "experiment": "flow cytometry, MB435S cells; control 4B5-IgG", "excerpt": "as §1"}}, "data": [{"binder": "B1", "values": [{"measurement": "Flow results", "setting": "[1]", "value": 15.8, "unit": "fold"}, {"measurement": "Fold-increase in MF", "setting": "[2]", "value": 13.5, "unit": "fold"}, {"measurement": "fold-increase in median fluorescence over isotype-matched control", "setting": "[3]", "value": 1, "unit": "fold"}, {"measurement": "increase in median fluorescence over isotype-matched control (MF)", "setting": "[4]", "value": 1.3, "unit": "fold"}, {"measurement": "Flow results", "setting": "[5]", "value": 1.1, "unit": "fold"}, {"measurement": "increase in median fluorescence over isotype-matched control (MF)", "setting": "[6]", "value": 15.8, "unit": "fold"}, {"measurement": "Flow results", "setting": "[7]", "value": 1, "unit": "fold"}, {"measurement": "fold-increase in median fluorescence over isotype-matched control", "setting": "[8]", "value": 1.1, "unit": "fold"}, {"measurement": "Flow results", "setting": "[9]", "value": 14.2, "unit": "fold"}, {"measurement": "increase in median fluorescence over isotype-matched control (MF)", "setting": "[10]", "value": 13.3, "unit": "fold"}, {"measurement": "Flow results", "setting": "[11]", "value": 4.63, "unit": "fold"}, {"measurement": "Fold-increase in MF", "setting": "[12]", "value": 31.7, "unit": "fold"}, {"measurement": "Flow results", "setting": "[13]", "value": 8.95, "unit": "fold"}, {"measurement": "Flow results", "setting": "[14]", "value": 11.1, "unit": "fold"}, {"measurement": "fold-increase in median fluorescence over isotype-matched control", "setting": "[15]", "value": 13.3, "unit": "fold"}, {"measurement": "increase in median fluorescence over isotype-matched control (MF)", "setting": "[16]", "value": 4.67, "unit": "fold"}, {"measurement": "increase in median fluorescence over isotype-matched control (MF)", "setting": "[17]", "value": 14.2, "unit": "fold"}, {"measurement": "fold-increase in median fluorescence over isotype-matched control", "setting": "[18]", "value": 4.63, "unit": "fold"}, {"measurement": "increase in median fluorescence over isotype-matched control (MF)", "setting": "[19]", "value": 8.3, "unit": "fold"}, {"measurement": "Kd", "setting": "[20]", "value": 58.8, "unit": "nM"}, {"measurement": "increase in median fluorescence over isotype-matched control (MF)", "setting": "[21]", "value": 1.1, "unit": "fold"}, {"measurement": "fold-increase in median fluorescence over isotype-matched control", "setting": "[22]", "value": 8.3, "unit": "fold"}, {"measurement": "Fold-increase in MF", "setting": "[23]", "value": 12, "unit": "fold"}, {"measurement": "fold-increase in median fluorescence over isotype-matched control", "setting": "[24]", "value": 14.2, "unit": "fold"}, {"measurement": "fold-increase in median fluorescence over isotype-matched control", "setting": "[25]", "value": 15.8, "unit": "fold"}]}]}
